The supplement of paper PMC9170038

Key:
[1] = system: MS2 coat protein; assay: apparent KD of MS2 coat protein; higher = weaker reporter binding; conditions: Eterna round: R107
Experimental: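 RNA-MaP round R107: designed RNA switches with theophylline, tryptophan, arginine or FMN aptamers are transcribed on-chip within common flanks. They are titrated with SNAP-549-labelled MS2 coat protein in RNA-MaP buffer (100 mM Tris pH 7.5, 80 mM KCl, 4 mM MgCl2), without ligand or with the indicated ligand. Median apparent KD per design.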

[2] = system: K4 kissing-loop RNA reporter; assay: apparent KD of K4 kissing-loop reporter; higher = weaker reporter binding; conditions: Eterna round: R107;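 further: bound reporter read as fluorescence of individual clusters on recovered sequencing chips by microscopy, with normalized cluster intensities fitted with a binding model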
Experimental: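 RNA-MaP round R107: designed RNA switches with theophylline, tryptophan, arginine or FMN aptamers are transcribed on-chip within common flanks. They are titrated with a labelled K4 kissing-loop RNA reporter in RNA-MaP buffer (100 mM Tris pH 7.5, 80 mM KCl, 4 mM MgCl2), without ligand or with the indicated ligand. Median apparent KD per design.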

[3] = input ligand: theophylline 20 uM
[4] = input ligand: theophylline 2 mM
[5] = input ligand: tryptophan 2.4 mM

Row | Sequence | apparent KD of MS2 coat protein ([1]; input ligand: arginine 13.2 mM) | apparent KD of MS2 coat protein ([1]; input ligand: none) | apparent KD of MS2 coat protein [1, 3] | apparent KD of MS2 coat protein [1, 4] | apparent KD of MS2 coat protein [1, 5] | apparent KD of K4 kissing-loop reporter ([2]; input ligand: FMN 200 uM) | apparent KD of K4 kissing-loop reporter ([2]; input ligand: arginine 13.2 mM) | apparent KD of K4 kissing-loop reporter ([2]; input ligand: none) | apparent KD of K4 kissing-loop reporter [2, 3] | apparent KD of K4 kissing-loop reporter [2, 5]
1 | AACAUGAGGAUCACCCAUGUCUGAACUGAAGGAGCGCUAAAUAAGGCAGGUAGGUCGCGGAAUUUUAUAUAUAUAUAUAUAUAGG [9.D] | 0.0287 µM | 0.028 µM | 0.0319 µM | 0.0198 µM | 0.025 µM | – | – | – | – | –
2 | AACAUGAGGAUCACCCAUGUCUGAACUGAAGGAGCGCUAAAUAAGGCAGGUAGGUCGCGGAAUUUUGUAUAUAUAUAUAUAUGGG [9.F] | 0.00601 µM | 0.0277 µM | 0.0285 µM | 0.025 µM | 0.0203 µM | – | – | – | – | –
3 | AACAUGAGGAUCACCCAUGUCUGAACUGAAGGAGCGCUAAAUAAGGCAGGUAGGUCGCGGAAUUUUGUGUGCAUAUGCAUAUGGG [9.I] | 0.0281 µM | 0.0303 µM | 0.0326 µM | 0.0298 µM | 0.0238 µM | – | – | – | – | –
4 | AACGUAUACAGAAGGAGCGUGAAUUAUAUUACUCAUUCAUAUACAUGAGGAUCACCCAUGUCACAGGUAGGUCGCUGUAUUCGUA [JR_ExcArginiB_Sub020] | 0.0559 µM | 0.0822 µM | 0.092 µM | 0.0869 µM | 0.0654 µM | – | – | – | – | –
5 | AAGACAUGAGGAUCACCCAUGUCGACAAAACGAGGACCGGUACGGCCGCCACUCGAAAGCAAAUGAGCGCAUGCGGCCUGGGUAU [Exclusion Tryp A GF2] | 0.0101 µM | 0.0119 µM | 0.0141 µM | 0.012 µM | 0.0127 µM | – | – | – | – | –
6 | AAGUGGCACGGAAGGAGCGAGUUUACCUAAAUAACAUGAGGAUCACCCAUGUAUAAUGGGACUCAGGUAGGUCGCCGUUGUCACU [Same State Arginine B GF 23] | 0.0229 µM | 0.0293 µM | 0.0431 µM | 0.0288 µM | 0.033 µM | – | – | – | – | –
7 | AAUAACAUGAGGAUCACCCAUGUAAAAGAUACCAGAGUGAUGAUCCUCCCUUGGCAGCUUAAACGCUAUUGAUUACAAUAGCGAA [Mat - Same State Theophlline A - Mod of Eli - D2] | 0.0298 µM | – | 0.114 µM | – | 0.0286 µM | – | – | – | – | –
8 | AAUAAUAUCCUCAUGUGAGUCGUACCGUAACGAGGACCGGUACGGCCGCCACUCGAACAUGAGGAUCACCCAUGUAGGUACGACA [M'-T'-T-MS2-T'' - Design 8] | 0.0421 µM | – | 0.182 µM | 0.238 µM | – | – | – | – | – | –
9 | AAUAAUCUAGGUGAUACCAGCUCAACAUGAGGAUCACCCAUGUACUCAUGUAGAGUUGAGAGCCCUUGGCAGCACCUAGAUAAUA [(Theo1)-(Ms2)-(M)'-(T)'-(Theo2)] | 0.198 µM | – | 0.665 µM | – | 1.02 µM | – | – | – | – | –
10 | AAUAUAAGUGUAAUUAUAUGUAUCUCUGAUACCAGACUCUCAUGUGUCCCUUGGCAGCAGUUACAUGAGGAUCACCCAUGUAUUA [JR_Nu_SSTheophyA_Sub024] | 0.0343 µM | – | 0.0802 µM | – | 0.0845 µM | – | – | – | – | –
11 | AAUCUGUCGGGUGAUACCAGCCUCGGCGCAUCUCACGCUGAACAUGAGGAUCACCCAUGUGGCCCUUGGCAGCACAUGACAAAUC [Tivece] | 0.202 µM | – | 0.709 µM | – | 0.62 µM | – | – | – | – | –
12 | ACACACAUGAGGAUCACCCAUGUAAUAGAUACCAGUGACGCGGUGCACCCUUGGCAGCUGCUGCUGAGUGAUGGUUCCCUCGGAA [Exclusion Theophylline A GF7] | 0.0168 µM | – | 0.0259 µM | – | 0.0192 µM | – | – | – | – | –
13 | UUUUAGGUAUCUGAUACCAGAGAAAAUAUAUGUAGUGAUGUUAUAUACAAAAUAAUUAAGCUCCCUUGGCAGCAGUUUUAAUUUU [AstrosExc-TheB#5] | – | – | – | – | – | 0.872 µM | 0.73 µM | 0.902 µM | 0.763 µM | 0.633 µM
14 | UUUUGGUACUGAGGAUAUUCGAAGAAAUAUAGUGAUGUUAUAUAAGGAGGAGGAGGGAGGGAGGAAGGAGAAGGCAGAAGAGGAG [ExFMNB.G] | – | – | – | – | – | 0.289 µM | 0.163 µM | 0.235 µM | 0.225 µM | 0.266 µM
